The values that follow come from patent publication US20240287168A1 (SHANGHAI JEMINCARE PHARMACEUTICAL, published 2024).

Assay [1] has as its target irrelevant antigen. The assay is described as follows: flow cytometry, yeast-displayed VHH, 10 nM irrelevant antigen, streptavidin-PE (Protocol 3, non-specific binding level). On the technique in general: In flow cytometry, cells or beads pass a laser one at a time.
For assay [2], the target named is T1, Biotinylated Human VEGF165 (ACROBiosystems, Cat. No. VE5-H82Q0) (human, UniProt P15692-4 27-191, biotinylated (site not stated)).
T1 construct: Bought reagent; also called Human VEGF-Bio; human VEGF165-Bio
The assay is described as follows: BLI (Octet RED96e), antibody captured on AHC sensor, 100 nM VEGF165, 1:1 fit. As to the method:
(§1) The antigen and antibody were both diluted with 1×PBST (1×PBS: Sango Biotech, B548117-0500; 0.02% Tween 20: sigma-alorich, P1379), the antigen was used at a concentration of 100 nM, and the antibody was used at a concentration of 50 nM.
(§2) (2) On-board detection of samples (Octet Data Acquisition 11.1.0.11): First, the samples were added to a 96-well plate (Greiner bio-one, 655209), and the system was 200 μL/well. Then the software parameters were set, the plate temperature was set to be 30° C., and the frequency of collecting the standard kinetic signal was 5.0 Hz. Next, the AHC sensor (Fortébio, Cat. No.: 18-0015) was pre-wetted with 1×PBST for 10 minutes, and then detected on the machine. Each cycle consists of the following steps: 1) immersion in the buffer for 60 seconds; 2) detection of whether there is a non-specific binding between antigen and sensor; 3) regeneration of 10 mM glycine solution with pH 1.7; 4) immersion in the buffer for 60 seconds; 5) immobilization of the antibody on the sensor for a time of 20 seconds; 6) immersion of the sensor in the buffer for 180 seconds; 7) binding of the antigen to the antibody for a time of 180 seconds; 8) dissociation of the antigen and the antibody for 10 minutes; 9) sensor regeneration.
Fortebio's Data Analysis 11.0 software was used to measure the binding rate (Ka) and dissociation rate (Kd) of the antigen-antibody in a 1:1 binding mode, and then the equilibrium dissociation constant (KD) of the antibody was calculated.
(In general: In BLI a coated tip is dipped into the sample, and binding shifts an interference pattern.)

Assay [3] deals with T1, Biotinylated Human VEGF165 …. The assay is described as follows: BLI (Octet RED96e), antibody captured on AHC sensor, 100 nM VEGF165. As to the method: as §1, §2
Assay [4] shares this target. Nature of the assay: competitive ELISA: antibody titrated with biotinylated human VEGF165 on coated human VEGFR2, SA-HRP, OD450; blocked interaction VEGF165-VEGFR2. The protocol: (§3) A competitive ELISA method was used to determine the activity of the single domain antibody in blocking the binding of VEGF165 to human VEGFR2. […] The next day, the plate was washed 3 times with washing solution PBST (0.05% TWEEN-20: sigma-alorich, P1379), and then the blocking solution PBST+2% BSA (BSA: VWR, 0332-1 KG) was prepared using the washing solution, with 300 μL of blocking solution added to each well, blocked at 37° C. for 1 hour. […] The plate was washed three times with the washing solution, the secondary antibody SA-HRP (sigma, S2438) was diluted 1:5000 with the blocking solution, added to the ELISA plate according to 100 μL/well, and incubated at 37° C. for 1 hour. The plate was washed 3 times with the washing solution, 100 μL of TMB chromogenic solution (Biopanda, Cat. No.: TMB-S-003) were added to each well, and developed color at room temperature in the dark, and then 50 μL of stop solution (Solarbio, Cat. No.: C1058) were added to each well to stop the reaction, and the absorbance was measured at a wavelength of 450 nm.
(In general: In an ELISA, binding on a coated surface is turned into a signal by an enzyme label.)

For assay [5] the target is unchanged. The assay is described as follows: flow cytometry, yeast-displayed clone, 1 nM Human VEGF165-Biotin; ratio of binding MFI and displaying MFI.
Assay [6] shares this target. The assay is described as follows: flow cytometry, yeast-displayed clone, 1 nM Human VEGF165-Biotin.
The target is the same in assay [7]. The assay is described as follows: BLI (Octet RED96e), method of Example 4, antibody on AHC sensor. The protocol: as §1, §2
For assay [8] the target is unchanged. The assay is described as follows: BLI (Octet RED96e), method of Example 4, antibody on AHC sensor, 1:1 fit. As to the method:
as §1, §2

Assay [9] shares this target. Nature of the assay: competitive ELISA: antibody titrated with biotinylated human VEGF165 (formulated at 700 ng/ml) on coated human VEGFR2, SA-HRP, OD450; blocked interaction VEGF165-VEGFR2. The protocol: as §3

Substitutions are numbered along the chain they refer to. In names and notes the source's numbering stands.

T1 sequence (P15692 other isoform, or with tags, fused parts or gaps limits assumed): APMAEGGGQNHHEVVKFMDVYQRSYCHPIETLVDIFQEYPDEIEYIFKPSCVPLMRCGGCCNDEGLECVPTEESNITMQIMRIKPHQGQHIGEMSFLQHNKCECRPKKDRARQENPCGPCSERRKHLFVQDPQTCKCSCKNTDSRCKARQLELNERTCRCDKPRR

B1: Y20A6, anti-human VEGF165 single domain heavy chain antibody clone displayed on yeast (VHH, not shown: large carriers; small tags and cut ends)
VHH: AVQLVESGGGLVQAGGSARLSCAASGSTSDIVSMAWYRQAPGKERDLVAAVFAEDWRYVEDSVRGRFTISRDNTKNTVDLQMNNLKPEDTAIYYCNVRLRITDERRRERLDYWGQGTQVTVSS
Regarding B1, the Irrelevant antigen binding signal (PE MFI) in assay [1] was found to be 21.8 MFI.

B2: Ab1910VE6 (Y20A6 VHH fused with IgG1 Fc N297A; original antibody before humanization) (Fc fusion)
VHH: B1 VHH
notes: Expressed in ExpiCHO cells; not shown: IgG1 Fc N297A (purchased from Taizhou Biointron Inc.)
The term Kd denotes the concentration at which binding is half-saturated. A low value points to a tighter complex. The term koff denotes the rate constant with which the complex falls apart. Low values mean a long-lived complex, high ones a short-lived complex. Broadly, the kon is the rate constant with which the complex forms. The term IC50 denotes the concentration that inhibits the measured activity by half. Take B2: in assay [2], binding was characterised by a dissociation constant (Kd) of 6.3 nM, the koff came out at 0.00888 s⁻¹ and the association rate constant (kon) was 1.41e+06 M⁻¹ s⁻¹. The Response value in [3] turned out to be 0.442. In assay [4], this molecule yielded an IC50 of 0.516 µg/mL.

B3: Ab1910VE9 parental sequence displayed on the surface of yeast (VHH)
VHH: EVQLVESGGGLVQPGGSLRLSCAASGSTSDIVSMAWYRQAPGKERELVSAVFAEDWRYVEDSVKGRFTISRDNSKNTVYLQMNSLRAEDTAVYYCNVRLRITDERRRERLDYWGQGTLVTVSS
notes: also called clone number Ab1910VE9
Turning to B3, in [5], the Binding force was 11.7. The “Binding MFI” value in assay [6] is 42.1 MFI.

B4: Ab1910VE18 (expressed single domain antibody with the Ab1910VE9 parent sequence, molecule before affinity maturation) (VHH)
VHH: B3 VHH
notes: Its theoretical pI (7.5) differs from that of Ab1910VE9 (7), so it is kept apart from Ab1910VE9
For the molecule B4, in [7], the Response value amounted to 0.142. In assay [8], binding was characterised by a dissociation constant (Kd) of 2.23 nM, the off-rate constant (koff) amounted to 0.00403 s⁻¹ and the kon came to 1.81e+06 M⁻¹ s⁻¹. The same molecule came in with a half-maximal inhibitory concentration (IC50) in [9] of 0.88 µg/mL.

B5: Ab1910VE9 (Hz20A6.3 humanized VHH fused with IgG1 Fc N297A) (Fc fusion)
VHH: B3 VHH
notes: as for B2
As to B5, in assay [2], the affinity, expressed as Kd, was 9.91 nM; the off-rate constant (koff) amounted to 0.0181 s⁻¹; the kon is 1.82e+06 M⁻¹ s⁻¹. Further, the IC50 in [4] was 4.67 µg/mL.

B6: Ab1910VE23 (expressed affinity-matured single domain antibody, clone YC43H2) (VHH)
VHH: B3 VHH with T102P, D103H, E104Q, R105W, R107T
B6 yielded a Response value in assay [7] of 0.116. In assay [8], this molecule came in with a Kd of 0.728 nM, a koff of 0.00104 s⁻¹ and a kon of 1.43e+06 M⁻¹ s⁻¹. The molecule also displayed a concentration for half-maximal inhibition (IC50) in assay [9] of 1.24 µg/mL.

B7: YC43B1, affinity-matured mutant clone of Ab1910VE9 displayed on yeast (VHH)
VHH: B3 VHH with E104W, R105Y, R106S
notes: also called antibody number Ab1910VE24
Turning to B7, in assay [5], the Binding force was 114. The “Binding MFI” value in assay [6] was found to be 503 MFI.

B8: Ab1910VE21 (expressed affinity-matured single domain antibody, clone YC41D1) (VHH)
VHH: B3 VHH with F52L, E54P, D55G, R57S
In assay [7], B8 returned a Response value of 0.154. Besides, in assay [8], binding was put at a Kd of 0.413 nM, the dissociation rate constant (koff) amounted to 0.00051 s⁻¹ and the association rate constant (kon) stood at 1.24e+06 M⁻¹ s⁻¹. In addition, the half-maximal inhibitory concentration (IC50) in [9] came to 0.42 µg/mL.

B9: Ab1910VE24 (expressed affinity-matured single domain antibody, clone YC43B1) (VHH)
VHH: B3 VHH with E104W, R105Y, R106S
As to B9, the Response value in assay [7] turned out to be 0.153. Besides, in [8], binding was characterised by a dissociation constant (Kd) of 0.626 nM, the koff stood at 0.000857 s⁻¹ and the on-rate constant (kon) was 1.37e+06 M⁻¹ s⁻¹. Further, the IC50 in assay [9] worked out at 0.623 µg/mL.

B10: YC43H2, affinity-matured mutant clone of Ab1910VE9 displayed on yeast (VHH)
VHH: B3 VHH with T102P, D103H, E104Q, R105W, R107T
notes: also called antibody number Ab1910VE23
As to B10, the Binding force in [5] was 129. The “Binding MFI” value in assay [6] stood at 358 MFI.

B11: Ab1910VE8 (Hz20A6.2 humanized VHH fused with IgG1 Fc N297A) (Fc fusion)
VHH: B3 VHH with Q115K, L118T
notes: as for B2
Turning to B11, in assay [2], the affinity, expressed as Kd, was 10.5 nM; the koff came out at 0.0184 s⁻¹; the kon was 1.75e+06 M⁻¹ s⁻¹. The IC50 in assay [4] is 4.18 µg/mL.

B12: YC41D1, affinity-matured mutant clone of Ab1910VE9 displayed on yeast (VHH)
VHH: B3 VHH with F52L, E54P, D55G, R57S
notes: also called antibody number Ab1910VE21
In the case of B12, the Binding force in [5] amounted to 98.2. Moreover, the “Binding MFI” value in [6] came to 337 MFI.
